Experimental data published in paper PMC5779224 (2017).
Changes are numbered by the printed parent chain. One block for each binder: values may come before it.

Columns and labels:
[1] = molecular target: T1, AnkG 38–855 (AnkG MBD-AI-c protein; MBD + partial AI-c) (rat, UniProt O70511-1 38-855); assay: ITC; two sites
T1 chain: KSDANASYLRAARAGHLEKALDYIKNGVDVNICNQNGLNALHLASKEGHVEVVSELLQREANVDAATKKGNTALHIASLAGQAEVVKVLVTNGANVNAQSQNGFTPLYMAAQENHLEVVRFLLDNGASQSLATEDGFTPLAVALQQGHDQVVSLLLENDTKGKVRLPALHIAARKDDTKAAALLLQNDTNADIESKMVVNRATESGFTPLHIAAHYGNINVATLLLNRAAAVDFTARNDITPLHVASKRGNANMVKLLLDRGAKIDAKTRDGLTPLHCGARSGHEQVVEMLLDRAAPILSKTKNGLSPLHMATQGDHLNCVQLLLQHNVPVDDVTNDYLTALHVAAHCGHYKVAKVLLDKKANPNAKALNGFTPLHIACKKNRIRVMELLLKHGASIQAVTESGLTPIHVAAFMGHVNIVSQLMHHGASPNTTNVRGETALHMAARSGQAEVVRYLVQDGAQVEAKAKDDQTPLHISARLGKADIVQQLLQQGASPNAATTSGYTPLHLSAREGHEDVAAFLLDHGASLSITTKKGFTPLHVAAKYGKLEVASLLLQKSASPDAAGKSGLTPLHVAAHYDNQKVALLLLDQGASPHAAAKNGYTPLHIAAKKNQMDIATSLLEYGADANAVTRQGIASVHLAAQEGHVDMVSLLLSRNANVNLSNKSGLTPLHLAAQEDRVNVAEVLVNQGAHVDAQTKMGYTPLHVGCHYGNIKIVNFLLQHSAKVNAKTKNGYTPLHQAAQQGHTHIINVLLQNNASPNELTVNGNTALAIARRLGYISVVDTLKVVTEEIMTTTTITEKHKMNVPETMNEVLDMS

[2] = molecular target: T2, AnkG_MBD 'site-2' mutant (Ile277Gln, Leu310Gln) (rat, UniProt O70511-1 38-855, Ile277Gln | Leu310Gln); assay: ITC
T2 sequence: T1 chain with I240Q, L273Q

[3] = molecular target: T3, AnkG_MBD 'site-1' mutant (Phe141Gln, Phe164Gln) (rat); assay: ITC
T3 chain: T1 chain with F104Q, F137Q

[4] = molecular target: T1, AnkG 38–855 (AnkG MBD-AI-c protein; MBD …); assay: ITC
[5] = molecular target: T4, AnkB MBD 'site-2' mutant (Ile267Gln, Leu300Gln) (human, UniProt Q01484-2 28-847, Ile267Gln | Leu300Gln); assay: ITC
T4 sequence: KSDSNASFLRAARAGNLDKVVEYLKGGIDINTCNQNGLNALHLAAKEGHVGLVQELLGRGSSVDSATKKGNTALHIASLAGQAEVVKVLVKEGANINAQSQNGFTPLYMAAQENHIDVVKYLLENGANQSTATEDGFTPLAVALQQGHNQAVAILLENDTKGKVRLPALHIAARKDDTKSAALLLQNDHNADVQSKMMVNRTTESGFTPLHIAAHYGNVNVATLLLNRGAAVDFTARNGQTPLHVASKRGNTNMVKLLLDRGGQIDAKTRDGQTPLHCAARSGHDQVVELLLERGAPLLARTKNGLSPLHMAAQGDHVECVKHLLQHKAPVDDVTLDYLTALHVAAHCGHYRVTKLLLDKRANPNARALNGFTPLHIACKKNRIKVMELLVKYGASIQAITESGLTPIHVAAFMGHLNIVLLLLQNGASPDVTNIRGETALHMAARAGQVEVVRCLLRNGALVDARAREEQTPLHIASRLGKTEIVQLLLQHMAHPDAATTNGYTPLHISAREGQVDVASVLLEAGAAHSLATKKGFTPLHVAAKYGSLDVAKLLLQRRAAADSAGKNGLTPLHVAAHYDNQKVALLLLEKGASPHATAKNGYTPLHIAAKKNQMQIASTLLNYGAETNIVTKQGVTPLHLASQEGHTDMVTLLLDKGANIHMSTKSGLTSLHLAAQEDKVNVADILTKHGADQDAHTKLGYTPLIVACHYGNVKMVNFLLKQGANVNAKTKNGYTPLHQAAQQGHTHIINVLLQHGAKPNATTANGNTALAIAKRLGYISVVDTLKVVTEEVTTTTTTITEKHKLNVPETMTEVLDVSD

[6] = molecular target: T5, AnkB 28–847 (MBD + partial AI-c) (human, UniProt Q01484-2 28-847); assay: ITC
T5 chain: T4 sequence with Q240I, Q273L

Kd [1]: ~3 µM
B1: AnkG long linker (aa 837–920; AI-c + AI-b) (domain or fragment)
chain: TEKHKMNVPETMNEVLDMSDDEVGKASAPEKLSDGEYISDGEEGEDAITGDTDKYLGPQDLKELGDDSLPAEGYVGFSLGARSA

Kd [2]: 3.9 µM
Kd [3]: 2.6 µM
Kd [4]: 1.6 µM
B2: AnkG linker ΔAI-c (aa 861–920) (domain or fragment)
chain: KASAPEKLSDGEYISDGEEGEDAITGDTDKYLGPQDLKELGDDSLPAEGYVGFSLGARSA

Kd [5]: 8.5 µM
Kd [6]: 3.7 µM
Binder: EDLKELGDDSLPSSQFLDGMNYLRYSLEGGRS (domain or fragment) [AnkB_AI-b (aa 865–896)]
